B1: Azoarcus group I ribozyme (parent)
chain: GUGCCUUGCGCCGGGAAACCACGCAAGGGAUGGUGUCAAAUUCGGCGAAACCUAAGCGCCCGCCCGGGCGUAUGGCAACGCCGAGCCAAGCUUCGGCGCCUGCGCCGAUGAAGGUGUAGAGACUAGACGGCACCCACCUAAGGCAAACGCUAUGGUGAAGGCAUAGUCCAGGGAGUGGCGAAAGUCACACAAACCGG

Variants of: B1
Experiment: reverse-splicing fitness (ratio to wild type); higher = more active; in vitro selection; Mg2+ level not given
Procedure, shortened: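 An in vitro group I ribozyme library with randomized positions was T7-transcribed and gel-purified. In triplicate, 10 pmol RNA in EPPS pH 7.5 was reacted with 50 pmoles of a 30-nt RNA substrate for 1 h at 37 °C across several added MgCl2 levels (1–48 mM), then stopped with EDTA. Products were reverse transcribed from a substrate-complementary primer, PCR-amplified and sequenced (HiSeq 4000). Fitness is a variant's read proportion after selection over that before, normalised to wild type.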

| Variant | reverse-splicing fitness |
| --- | --- |
| A111G A120G A145U C150G C169U U176G | 0.00442 |
| A111G A120G A145U C150G C169U U176C | 0.0171 |
| A111G A120G A145U C150G C169U U176A | 0.0148 |
| A111G A120G C150A U176A | 0.0188 |
| A111G A120G C150A U176G | 0.00663 |
| A111G A120G C150A U176C | 0.0301 |
| A111G A120G A145U C150A C169G U176A | 0.0201 |
| A111G A120G A145U C150A C169G U176C | 0.0243 |
| A111G A120G A145U C150A C169G U176G | 0.00424 |
| A111G A120U A145C C150A C169A U176G | 0.00177 |
| A111G A120U A145C C150A C169A U176A | 0.00282 |
| A111G A120U A145C C150A C169A U176C | 0.00206 |
| A111G A120G A145U C169G U176G | 0.00712 |
| A111G A120G A145U C169G U176C | 0.106 |
| A111G A120G A145U C169G U176A | 0.0761 |
| A111G A120G A145C C150G C169U U176G | 0.00502 |
| A111G A120G A145C C150G C169U U176A | 0.0176 |
| A111G A120G A145C C150G C169U U176C | 0.0162 |
| A111G A120G A145C C150U C169G U176G | 0.00498 |
| A111G A120G A145C C150U C169G U176A | 0.0412 |
| A111G A120G A145C C150U C169G U176C | 0.036 |

| Variant | reverse-splicing fitness |
| --- | --- |
| A111G A120G C169U U176G | 0.011 |
| A111G A120G C169U U176A | 0.0845 |
| A111G A120G C169U U176C | 0.0969 |
| A111G A120G A145U C169A U176C | 0.0642 |
| A111G A120G A145U C169A U176G | 0.00646 |
| A111G A120G A145U C169A U176A | 0.0397 |
| A111G A120U A145C C150G C169U U176C | 0.0023 |
| A111G A120U A145C C150G C169U U176G | 0.00225 |
| A111G A120U A145C C150G C169U U176A | 0.00272 |
| A111G A120G A145C C150U C169U U176C | 0.0306 |
| A111G A120G A145C C150U C169U U176G | 0.00645 |
| A111G A120G A145C C150U C169U U176A | 0.0353 |
| A111G A120G A145G C150A C169G U176C | 0.0371 |
| A111G A120G A145G C150A C169G U176A | 0.0262 |
| A111G A120G A145G C150A C169G U176G | 0.00578 |
| A111G A120G A145G C150A C169G | 0.0514 |
| A111G A120G A145G C150A C169A | 0.0278 |
| A111G A120G A145G C150A C169U | 0.0458 |
| A111G A120G C150U U176G | 0.00879 |
| A111G A120G C150U U176C | 0.0801 |
| A111G A120G C150U U176A | 0.0505 |

| Variant | reverse-splicing fitness |
| --- | --- |
| A111G A120G A145G C150U C169A U176A | 0.0303 |
| A111G A120G A145G C150U C169A U176C | 0.0553 |
| A111G A120G A145G C150U C169A U176G | 0.00612 |
| A111G A120U A145C C150G U176A | 0.0114 |
| A111G A120U A145C C150G U176C | 0.0153 |
| A111G A120U A145C C150G U176G | 0.0047 |
| A111G A120G A145C | 0.266 |
| A111G A120G A145U | 0.274 |
| A111G A120G A145G | 0.285 |
| A111G A120G A145C C169U U176C | 0.0829 |
| A111G A120G A145C C169U U176A | 0.0733 |
| A111G A120G A145C C169U U176G | 0.00876 |
| A111G A120G A145C C150A C169A | 0.0124 |
| A111G A120G A145C C150A C169G | 0.0196 |
| A111G A120G A145C C150A C169U | 0.0192 |
| A111G A120G A145C C169A U176A | 0.0345 |
| A111G A120G A145C C169A U176G | 0.00382 |
| A111G A120G A145C C169A U176C | 0.0567 |
| A111G A120G C150G C169U U176C | 0.0166 |
| A111G A120G C150G C169U U176A | 0.0138 |
| A111G A120G C150G C169U U176G | 0.00593 |

| Variant | reverse-splicing fitness |
| --- | --- |
| A111G A120G A145G C150G C169U U176C | 0.0152 |
| A111G A120G A145G C150G C169U U176A | 0.012 |
| A111G A120G A145G C150G C169U U176G | 0.00654 |
| A111G A120U A145C C150G C169A U176G | 0.00216 |
| A111G A120U A145C C150G C169A U176C | 0.00245 |
| A111G A120U A145C C150G C169A U176A | 0.00204 |
| A111G A120G A145G C150A C169A U176A | 0.0193 |
| A111G A120G A145G C150A C169A U176C | 0.0283 |
| A111G A120G A145G C150A C169A U176G | 0.00569 |
| A111G A120G A145U C150U U176A | 0.0608 |
| A111G A120G A145U C150U U176C | 0.0782 |
| A111G A120G A145U C150U U176G | 0.00788 |
| A111G A120G C150U C169U U176C | 0.0607 |
| A111G A120G C150U C169U U176A | 0.0545 |
| A111G A120G C150U C169U U176G | 0.00845 |
| A111G A120G A145U C150A C169U U176C | 0.0198 |
| A111G A120G A145U C150A C169U U176G | 0.00518 |
| A111G A120G A145U C150A C169U U176A | 0.0273 |
| A111G A120C C169A U176C | 0.0167 |
| A111G A120C C169A U176A | 0.0147 |
| A111G A120C C169A U176G | 0.00421 |

Reference: the RNAGym collection of RNA variant scans (doi:10.1093/molbev/msab373)
